Results on nine molecules are retold here after patent US20200024322A1 (Eli Lilly, published 2020).

As a reminder, the Ki is the equilibrium dissociation constant of an inhibitor or competing ligand from its target. Higher therefore signals a looser hold on the target.

Numbered stars: 1 amine (or outer) side, 2 acyl side, 3 side chain; on linkers, the order of the positions; unused ones are H or OH. Square brackets hold non-standard residues; d marks the D form. Side chains are listed from the residue outwards. Ends that are not written are not given here. * marks the point of attachment. C20 diacid = O=C(O)CCCCCCCCCCCCCCCCCCC(=O)*; γGlu = O=C(O)[C@H](CCC(=O)[*:2])N[*:1]; AEEA = NCCOCCOCC(=O)O; Aib = CC(C)(N)C(=O)O

B1: Example 1 (peptide)
peptide: YXEGTXTSDYSIXLDEKAQXEFIXYLIEGGPSSGAPPPS
modifications: Aib2; αMeF(2F)6; αMeL13; K17((2-[2-(2-Amino-ethoxy)-ethoxy]-acetyl)2-(γ-Glu)-CO-(CH2)18-CO2H); Aib20; D-Glu24; C-terminal NH2
B2: Example 48 (peptide)
peptide: Y[Aib]EGTFTSDYSILLDKIAQ[Aib]AFIEYLIEGGPSSGAPPPK([AEEA-AEEA-γGlu-C20 diacid])-NH2
modifications: N-terminus assumed
SMILES: CC[C@H](C)[C@H](NC(=O)[C@H](CCCCN)NC(=O)[C@H](CC(=O)O)NC(=O)[C@H](CC(C)C)NC(=O)[C@H](CC(C)C)NC(=O)[C@@H](NC(=O)[C@H](CO)NC(=O)[C@H](Cc1ccc(O)cc1)NC(=O)[C@H](CC(=O)O)NC(=O)[C@H](CO)NC(=O)[C@@H](NC(=O)[C@H](Cc1ccccc1)NC(=O)[C@@H](NC(=O)CNC(=O)[C@H](CCC(=O)O)NC(=O)C(C)(C)NC(=O)[C@@H](N)Cc1ccc(O)cc1)[C@@H](C)O)[C@@H](C)O)[C@@H](C)CC)C(=O)N[C@@H](C)C(=O)N[C@@H](CCC(N)=O)C(=O)NC(C)(C)C(=O)N[C@@H](C)C(=O)N[C@@H](Cc1ccccc1)C(=O)N[C@H](C(=O)N[C@@H](CCC(=O)O)C(=O)N[C@@H](Cc1ccc(O)cc1)C(=O)N[C@@H](CC(C)C)C(=O)N[C@H](C(=O)N[C@@H](CCC(=O)O)C(=O)NCC(=O)NCC(=O)N1CCC[C@H]1C(=O)N[C@@H](CO)C(=O)N[C@@H](CO)C(=O)NCC(=O)N[C@@H](C)C(=O)N1CCC[C@H]1C(=O)N1CCC[C@H]1C(=O)N1CCC[C@H]1C(=O)N[C@@H](CCCCNC(=O)COCCOCCNC(=O)COCCOCCNC(=O)CC[C@H](NC(=O)CCCCCCCCCCCCCCCCCCC(=O)O)C(=O)O)C(N)=O)[C@@H](C)CC)[C@@H](C)CC
B3: Example 90 (peptide)
peptide: Y[Aib]NGTFTSDYSILLDKK([AEEA-AEEA-γGlu-C20 diacid])AQ[Aib]AFIEYLIEGGPSSGAPPPS-NH2
modifications: N-terminus assumed
SMILES: CC[C@H](C)[C@H](NC(=O)[C@H](CC(C)C)NC(=O)[C@H](Cc1ccc(O)cc1)NC(=O)[C@H](CCC(=O)O)NC(=O)[C@@H](NC(=O)[C@H](Cc1ccccc1)NC(=O)[C@H](C)NC(=O)C(C)(C)NC(=O)[C@H](CCC(N)=O)NC(=O)[C@H](C)NC(=O)[C@H](CCCCNC(=O)COCCOCCNC(=O)COCCOCCNC(=O)CC[C@H](NC(=O)CCCCCCCCCCCCCCCCCCC(=O)O)C(=O)O)NC(=O)[C@H](CCCCN)NC(=O)[C@H](CC(=O)O)NC(=O)[C@H](CC(C)C)NC(=O)[C@H](CC(C)C)NC(=O)[C@@H](NC(=O)[C@H](CO)NC(=O)[C@H](Cc1ccc(O)cc1)NC(=O)[C@H](CC(=O)O)NC(=O)[C@H](CO)NC(=O)[C@@H](NC(=O)[C@H](Cc1ccccc1)NC(=O)[C@@H](NC(=O)CNC(=O)[C@H](CC(N)=O)NC(=O)C(C)(C)NC(=O)[C@@H](N)Cc1ccc(O)cc1)[C@@H](C)O)[C@@H](C)O)[C@@H](C)CC)[C@@H](C)CC)C(=O)N[C@@H](CCC(=O)O)C(=O)NCC(=O)NCC(=O)N1CCC[C@H]1C(=O)N[C@@H](CO)C(=O)N[C@@H](CO)C(=O)NCC(=O)N[C@@H](C)C(=O)N1CCC[C@H]1C(=O)N1CCC[C@H]1C(=O)N1CCC[C@H]1C(=O)N[C@@H](CO)C(N)=O
B4: Example 110 (peptide)
peptide: YXEGTFTSDYSILLDKKAQXAFIEYLIEGGPSSGAPPPS
modifications: Aib2; K17((2-[2-(2-Amino-ethoxy)-ethoxy]-acetyl)-(γ-Glu)-(Trx)-CO-(CH2)18-CO2H); Aib20; C-terminal NH2
B5: Example 58 (peptide)
peptide: Y[Aib]EGTFTSDYSSLLDKK([AEEA-AEEA-γGlu-C20 diacid])AQ[Aib]AFIEYLIEGGPSSGAPPPS-NH2
modifications: N-terminus assumed
SMILES: CC[C@H](C)[C@H](NC(=O)[C@H](CC(C)C)NC(=O)[C@H](Cc1ccc(O)cc1)NC(=O)[C@H](CCC(=O)O)NC(=O)[C@@H](NC(=O)[C@H](Cc1ccccc1)NC(=O)[C@H](C)NC(=O)C(C)(C)NC(=O)[C@H](CCC(N)=O)NC(=O)[C@H](C)NC(=O)[C@H](CCCCNC(=O)COCCOCCNC(=O)COCCOCCNC(=O)CC[C@H](NC(=O)CCCCCCCCCCCCCCCCCCC(=O)O)C(=O)O)NC(=O)[C@H](CCCCN)NC(=O)[C@H](CC(=O)O)NC(=O)[C@H](CC(C)C)NC(=O)[C@H](CC(C)C)NC(=O)[C@H](CO)NC(=O)[C@H](CO)NC(=O)[C@H](Cc1ccc(O)cc1)NC(=O)[C@H](CC(=O)O)NC(=O)[C@H](CO)NC(=O)[C@@H](NC(=O)[C@H](Cc1ccccc1)NC(=O)[C@@H](NC(=O)CNC(=O)[C@H](CCC(=O)O)NC(=O)C(C)(C)NC(=O)[C@@H](N)Cc1ccc(O)cc1)[C@@H](C)O)[C@@H](C)O)[C@@H](C)CC)C(=O)N[C@@H](CCC(=O)O)C(=O)NCC(=O)NCC(=O)N1CCC[C@H]1C(=O)N[C@@H](CO)C(=O)N[C@@H](CO)C(=O)NCC(=O)N[C@@H](C)C(=O)N1CCC[C@H]1C(=O)N1CCC[C@H]1C(=O)N1CCC[C@H]1C(=O)N[C@@H](CO)C(N)=O
B6: Example 135 (peptide)
peptide: H[Aib]NGTFTSDYSILLDKK([AEEA-AEEA-γGlu-C20 diacid])AQ[Aib]AFIEYLIEGGPSSGAPPPS-NH2
modifications: N-terminus assumed
SMILES: CC[C@H](C)[C@H](NC(=O)[C@H](CC(C)C)NC(=O)[C@H](Cc1ccc(O)cc1)NC(=O)[C@H](CCC(=O)O)NC(=O)[C@@H](NC(=O)[C@H](Cc1ccccc1)NC(=O)[C@H](C)NC(=O)C(C)(C)NC(=O)[C@H](CCC(N)=O)NC(=O)[C@H](C)NC(=O)[C@H](CCCCNC(=O)COCCOCCNC(=O)COCCOCCNC(=O)CC[C@H](NC(=O)CCCCCCCCCCCCCCCCCCC(=O)O)C(=O)O)NC(=O)[C@H](CCCCN)NC(=O)[C@H](CC(=O)O)NC(=O)[C@H](CC(C)C)NC(=O)[C@H](CC(C)C)NC(=O)[C@@H](NC(=O)[C@H](CO)NC(=O)[C@H](Cc1ccc(O)cc1)NC(=O)[C@H](CC(=O)O)NC(=O)[C@H](CO)NC(=O)[C@@H](NC(=O)[C@H](Cc1ccccc1)NC(=O)[C@@H](NC(=O)CNC(=O)[C@H](CC(N)=O)NC(=O)C(C)(C)NC(=O)[C@@H](N)Cc1c[nH]cn1)[C@@H](C)O)[C@@H](C)O)[C@@H](C)CC)[C@@H](C)CC)C(=O)N[C@@H](CCC(=O)O)C(=O)NCC(=O)NCC(=O)N1CCC[C@H]1C(=O)N[C@@H](CO)C(=O)N[C@@H](CO)C(=O)NCC(=O)N[C@@H](C)C(=O)N1CCC[C@H]1C(=O)N1CCC[C@H]1C(=O)N1CCC[C@H]1C(=O)N[C@@H](CO)C(N)=O
B7: Example 109 (peptide)
peptide: B4 peptide
modifications: Aib2; K17(AOC-(2-[2-(2-Amino-ethoxy)-ethoxy]-acetyl)-(γ-Glu)-CO-(CH2)18-CO2H); Aib20; C-terminal NH2
B8: Example 108 (peptide)
peptide: B4 peptide
modifications: Aib2; K17((2-[2-(2-Amino-ethoxy)-ethoxy]-acetyl)-AOC-(γ-Glu)-CO-(CH2)18-CO2H); Aib20; C-terminal NH2
B9: Example 87 (peptide)
peptide: B4 peptide
modifications: αMePro2; K17((2-[2-(2-Amino-ethoxy)-ethoxy]-acetyl)2-(γ-Glu)-CO-(CH2)18-CO2H); Aib20; C-terminal NH2

For the first assay, the target named is T1, human GLP-1 receptor (human, UniProt P43220 24-463).
T1 construct: whole, on cells; Used as crude membranes of stably transfected HEK293 cells; also called hGLP1R; hGLP-1R
The assay can be described thus: SPA, [125I]-GLP-1 displacement, hGLP-1R membranes.
B1 gave a Ki of 6.67 nM.
Take B2: the inhibition constant Ki worked out at 15.7 nM.
For the molecule B3, the Ki stood at 4.76 nM.
In turn, B4 had a Ki of 4.38 nM.
In turn, B5 yielded a Ki of 2.77 nM.
Regarding B6, the Ki came to 3.01 nM.
Molecule B7 showed a Ki of 1.34 nM.
For B8, the Ki was 3 nM.
Consider B9, for which the Ki worked out at 1.79 nM.

The target of the next assay is T2, human glucagon receptor (human, UniProt P47871 26-477).
T2 construct: whole, on cells; Used as crude membranes of stably transfected HEK293 cells; also called hGcgR; hGLcgR
T2 sequence (P47871 26-477): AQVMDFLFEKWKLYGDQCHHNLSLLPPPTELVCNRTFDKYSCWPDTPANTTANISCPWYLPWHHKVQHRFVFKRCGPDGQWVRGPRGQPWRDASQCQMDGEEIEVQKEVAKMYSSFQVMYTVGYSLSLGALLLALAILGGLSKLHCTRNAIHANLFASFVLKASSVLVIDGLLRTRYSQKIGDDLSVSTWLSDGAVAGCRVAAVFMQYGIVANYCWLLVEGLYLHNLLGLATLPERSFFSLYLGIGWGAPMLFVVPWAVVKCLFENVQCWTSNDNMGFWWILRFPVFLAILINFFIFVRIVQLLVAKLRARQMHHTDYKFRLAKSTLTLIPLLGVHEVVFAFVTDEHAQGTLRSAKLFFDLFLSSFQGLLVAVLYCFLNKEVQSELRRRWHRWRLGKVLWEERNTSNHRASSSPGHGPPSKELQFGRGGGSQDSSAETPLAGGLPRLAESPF
Put plainly: SPA, [125I]-Gcg displacement, hGcgR membranes.
Turning to B1, the Ki was 207 nM.
In turn, B2 displayed a Ki of 111 nM.
B3 gave a Ki of 245 nM.
For B4, the Ki was found to be 73.9 nM.
As to B5, the Ki is 339 nM.
Molecule B6 displayed a Ki of 454 nM.
With B7, the Ki turned out to be 43.1 nM.
On the same count and under the same terms, as for B8, the figure is 171 nM; as for B9, 278 nM.

The target in the next assay is T3, human GIP receptor (human, UniProt P48546 22-466).
T3 construct: whole, on cells; Used as crude membranes of stably transfected CHO cells; also called hGIPR
T3 sequence (looked up): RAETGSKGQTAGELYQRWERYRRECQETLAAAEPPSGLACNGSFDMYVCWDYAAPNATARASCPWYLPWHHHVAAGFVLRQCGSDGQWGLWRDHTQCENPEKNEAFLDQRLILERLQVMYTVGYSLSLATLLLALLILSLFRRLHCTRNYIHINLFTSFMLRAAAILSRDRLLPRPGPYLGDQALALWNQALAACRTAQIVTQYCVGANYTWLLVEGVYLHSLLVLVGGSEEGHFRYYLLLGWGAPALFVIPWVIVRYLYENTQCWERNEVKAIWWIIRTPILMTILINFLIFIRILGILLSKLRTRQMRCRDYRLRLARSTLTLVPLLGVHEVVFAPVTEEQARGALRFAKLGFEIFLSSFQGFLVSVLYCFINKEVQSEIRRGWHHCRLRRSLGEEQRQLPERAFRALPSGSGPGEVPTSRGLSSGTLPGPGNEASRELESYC
The assay can be described thus: SPA, [125I]-GIP displacement, hGIPR membranes.
For the molecule B1, the inhibition constant Ki is 0.0546 nM.
Regarding B2, the affinity, expressed as Ki, was 0.074 nM.
B3 yielded a Ki of 0.0472 nM.
For the molecule B4, the inhibition constant (Ki) was 0.0395 nM.
Molecule B5 displayed a Ki of 0.105 nM.
Consider B6, for which the Ki was found to be 0.161 nM.
For B7, affinity was put at a Ki of 0.0279 nM.
On to B8, for which the Ki stood at 0.0732 nM.
On the same count and under the same terms, as for B9, the figure is 0.034 nM.
